Measured values: US20170015742A1 (published 2017)
Numbering of substitutions follows the chain as printed.

B1: BEW-9C2-D6 (antibody, V domains shown)
VH: QIQLVQSGPELKKPGESVKVSCKASGYTFTNYGIHWVKQAPGQGLQYVGWINTETGRPTYADDFKGRFVFFLETSASTAYLQINNLKNEDMATYFCARPLYYGYAHYFDYWGQGVMVTVSS
VL: DIQMTQSPASLSASLEEIVTITCQASQDIGNWLAWYQQKPGKSPQLLIYGATSLADGVPSRFSGSRSGTQYSLKISRLQVEDIGIYYCQQASSVTYTFGAGTKLELK
notes: Rat hybridoma anti-human VEGF-A monoclonal antibody, isotype IgG2b/kappa
B2: BEW-9E7-B4 (antibody, V domains shown)
VH: QIQLVQSGPELKKPGESVKISCKASGYTFTNYGMYWVKQAPGQGLQYMGWIDTETGKPTYADDFKGRFVFFLETSASTAYLQINNLRNEDMATYFCARWGYTSDYYYGWFPDWGQGTLVTVST
VL: DTVLTQSPALAVSPGERVSISCRASEGVNSYMHWYQQNPGQQPKLLIYKASNLASGVPARFSGSGSGTDFTLNIHPVEADDTATYFCQQNWNVPLTFGSGTKLEIK
notes: as for B1
B3: BEW-9D2-E8 (antibody, V domains shown)
VH: QIQLVQSGPELKKPGESVKISCKASGYTFTNYGMYWVKLAPGQGLQYLGWINTETGKPTYADDFKGRFVFFLETSASTAYLQINNLRNEDMATYFCARPSDYYDGFWFAYWGQGTLVTVSS
VL: B2 VL with A11T, G27W, N73T, I74L, H75D, N90S, V93D
notes: Rat hybridoma anti-human VEGF-A monoclonal antibody, isotype IgG2a/kappa
B4: BED-4G10-C8 (antibody, V domains shown)
VH: QVQLQQSGTELVKPGSSVKISCKASGYTFTSNYMHWIRQQPGNGLEWIGWIYPGDGDTNYNHNFNGKATLTADKSSSTAYMQLSSLTSEDFAVYFCASSTRAIPGWFTYWGQGTLVTVSS
VL: DTVLTQSPALAVSPGERVSISCWASESVSTLMHWYQQKLGQQPKLLIYGASNLESGVPARFRGSGSGTDFTLTIDPVEADDTATYFCQQSWSDPYTFGAGTKLELK
notes: as for B1
B5: BDB-4G8-D4 (antibody, V domains shown)
VH: QIQLVQSGPELKKPGESVKISCKASGYTFTNYGMYWVKQAPGQGLQYMGWINTETGKPTYADDFKGRFVFFLETSASTAYLQINNLKNEDMATYFCARTNYYYRSYIFYFDYWGQGTMVTVSS
VL: B4 VL with W23R, L31H, L39P, R62S, S92N, Y95F, G100V
notes: as for B1
B6: BEW-1B10-B9-C3 (antibody, V domains shown)
VH: EVQLVESGGGLVQPGRSLKLSCAASGFSFSKYDMAWFRQTPTKGLEWVASITTSGVGTYYRDSVKGRFTVSRDNAKSTLYLQMDSLRSEDTATYYCARGYGAMDAWGQGTSVTVSS
VL: DIQMTQSPASLSASLEEIVTITCKASQDIDDYLSWYQQKPGKSPQLVIYAATRLADGVPSRFSGSGSGTQYSLKISRLQVDDSGIYYCLQSSSTPWTFGGGTNLELK
notes: as for B3
B7: BEW-3A1-D10-G9 (antibody, V domains shown)
VH: QVQLEQSGAELVKPGTSVKLSCMASGYTSSSNHMNWMKQTTGQGLEWIGIINPGSGGTRYNVKFEGKATLTVDKSSSTAFMQLNSLTPEDSAVYYCARAGFPGPFSYYAMGAWGQGTSVTVSS
VL: DIQMTQSPPVLSASVGDRVTLSCKASQNIHNNLDWYQQKHGEAPKLLIFYTNNLQTGIPSRFSGSGSGTDYTLTISSLQPEDVATYYCYQYNSGYTFGAGTKLELK
notes: as for B1
B8: hBEW-1E3.1 (antibody, V domains shown)
VH: EIQLVQSGSELKKPGASVKVSCKASGYPFTNSGMYWVKQAPGQGLEYMGWINTEAGKPTYADDFKGRFVFSLDTSVSTAYLQISSLKAEDTAVYFCARWGYISDNSYGWFDYWGQGTLVTVSS
VL: ETVLTQSPATLSLSPGERATLSCRASEGVYSYMHWYQQKPGQQPRLLIYKASNLASGVPARFSGSGSGTDFTLTISSLEPEDFAVYFCHQNWNDPLTFGQGTKLEIK
notes: Humanized IgG
B9: hBEW-1E3.4 (antibody, V domains shown)
VH: B8 VH
VL: ATQLTQSPSSLSASVGDRVTISCRASEGVYSYMHWYQQKPGKQPKLLIYKASNLASGVPSRFSGSGSGTDFTLTISSLQPEDFATYFCHQNWNDPLTFGQGTKLEIK
notes: Humanized IgG
B10: hBEW-1E3.2 (antibody, V domains shown)
VH: B8 VH with S9A, L11V, V69T, S71T, V76T, Q82E, S84R, K87R, A88S, E89D
VL: B8 VL
notes: Humanized IgG
B11: hBEW-1E3.5 (antibody, V domains shown)
VH: B8 VH with S9A, L11V, V69T, S71T, V76T, Q82E, S84R, K87R, A88S, E89D
VL: B9 VL
notes: Humanized IgG
B12: 9E8.4-GS-4G8.3 DVD-Ig (PR-1563988) (bispecific antibody, human IgG1, kappa, L234A L235A)
heavy: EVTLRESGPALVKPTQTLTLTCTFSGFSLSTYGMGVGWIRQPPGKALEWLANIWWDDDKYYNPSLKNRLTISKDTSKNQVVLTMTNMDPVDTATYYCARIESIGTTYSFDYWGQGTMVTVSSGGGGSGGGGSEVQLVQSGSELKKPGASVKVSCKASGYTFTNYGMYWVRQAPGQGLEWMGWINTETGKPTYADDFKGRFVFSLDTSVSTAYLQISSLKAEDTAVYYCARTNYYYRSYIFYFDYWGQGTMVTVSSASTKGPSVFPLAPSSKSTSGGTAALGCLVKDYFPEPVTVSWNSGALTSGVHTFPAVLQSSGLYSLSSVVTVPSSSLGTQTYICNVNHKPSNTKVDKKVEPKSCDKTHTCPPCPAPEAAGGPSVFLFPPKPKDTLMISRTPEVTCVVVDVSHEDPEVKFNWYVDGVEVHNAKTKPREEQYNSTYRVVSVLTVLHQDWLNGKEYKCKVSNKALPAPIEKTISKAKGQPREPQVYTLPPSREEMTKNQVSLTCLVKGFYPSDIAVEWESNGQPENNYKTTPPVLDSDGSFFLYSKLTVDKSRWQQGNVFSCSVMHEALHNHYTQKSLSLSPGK
light: EFVLTQSPGTLSLSPGERATLSCERSSGDIGDSYVSWYQQKPGQAPRLVIYADDQRPSGIPDRFSGSGSGTDFTLTISRLEPEDFAVYYCQSYDINIDIVFGGGTKVEIKGGGSGGGGSGDTVLTQSPATLSLSPGERATLSCRASESVSTHMHWYQQKPGQAPRLLIYGASNLESGVPARFSGSGSGTDFTLTISSLEPEDFAVYFCQQSWNDPFTFGQGTKLEIKRTVAAPSVFIFPPSDEQLKSGTASVVCLLNNFYPREAKVQWKVDNALQSGNSQESVTEQDSKDSTYSLSSTLTLSKADYEKHKVYACEVTHQGLSSPVTKSFNRGEC
B13: CODV015 cross-over DVD-Ig (PR-1571827) (bispecific antibody, human IgG1, kappa, L234A L235A)
heavy: EVQLVQSGSELKKPGASVKVSCKASGYTFTNYGMYWVRQAPGQGLEWMGWINTETGKPTYADDFKGRFVFSLDTSVSTAYLQISSLKAEDTAVYYCARTNYYYRSYIFYFDYWGQGTMVTVSSGGGGSGGGEFVLTQSPGTLSLSPGERATLSCERSSGDIGDSYVSWYQQKPGQAPRLVIYADDQRPSGIPDRFSGSGSGTDFTLTISRLEPEDFAVYYCQSYDINIDIVFGGGTKVEIKGGGSGASTKGPSVFPLAPSSKSTSGGTAALGCLVKDYFPEPVTVSWNSGALTSGVHTFPAVLQSSGLYSLSSVVTVPSSSLGTQTYICNVNHKPSNTKVDKKVEPKSCDKTHTCPPCPAPEAAGGPSVFLFPPKPKDTLMISRTPEVTCVVVDVSHEDPEVKFNWYVDGVEVHNAKTKPREEQYNSTYRVVSVLTVLHQDWLNGKEYKCKVSNKALPAPIEKTISKAKGQPREPQVYTLPPSREEMTKNQVSLTCLVKGFYPSDIAVEWESNGQPENNYKTTPPVLDSDGSFFLYSKLTVDKSRWQQGNVFSCSVMHEALHNAYTQKSLSLSPGK
light: EVTLRESGPALVKPTQTLTLTCTFSGFSLSTYGMGVGWIRQPPGKALEWLANIWWDDDKYYNPSLKNRLTISKDTSKNQVVLTMTNMDPVDTATYYCARIESIGTTYSFDYWGQGTMVTVSSGGGGSGGGDTVLTQSPATLSLSPGERATLSCRASESVSTHMHWYQQKPGQAPRLLIYGASNLESGVPARFSGSGSGTDFTLTISSLEPEDFAVYFCQQSWNDPFTFGQGTKLEIKGGSRTVAAPSVFIFPPSDEQLKSGTASVVCLLNNFYPREAKVQWKVDNALQSGNSQESVTEQDSKDSTYSLSSTLTLSKADYEKHKVYACEVTHQGLSSPVTKSFNRGEC
B14: CODV016 cross-over DVD-Ig (PR-1571828) (bispecific antibody, human IgG1, kappa, L234A L235A)
heavy: B13 heavy
light: EVTLRESGPALVKPTQTLTLTCTFSGFSLSTYGMGVGWIRQPPGKALEWLANIWWDDDKYYNPSLKNRLTISKDTSKNQVVLTMTNMDPVDTATYYCARIESIGTTYSFDYWGQGTMVTVSSGGGGSDTVLTQSPATLSLSPGERATLSCRASESVSTHMHWYQQKPGQAPRLLIYGASNLESGVPARFSGSGSGTDFTLTISSLEPEDFAVYFCQQSWNDPFTFGQGTKLEIKGGSRTVAAPSVFIFPPSDEQLKSGTASVVCLLNNFYPREAKVQWKVDNALQSGNSQESVTEQDSKDSTYSLSSTLTLSKADYEKHKVYACEVTHQGLSSPVTKSFNRGEC

The binders below were run against T1, recombinant human VEGF-A 165 (human, UniProt P15692 207-395) (assay: receptor competition ELISA, biotinylated hVEGF165 binding to coated hVEGF-R2-Fc).
T1 construct: also called huVEGF-A165; hVEGF165
T1 sequence (P15692 other isoform, or with tags, fused parts or gaps limits assumed): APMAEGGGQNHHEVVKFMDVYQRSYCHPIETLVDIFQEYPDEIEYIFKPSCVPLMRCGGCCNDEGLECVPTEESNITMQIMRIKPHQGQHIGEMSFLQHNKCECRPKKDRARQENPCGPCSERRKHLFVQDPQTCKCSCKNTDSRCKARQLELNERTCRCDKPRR
Procedure: To identify molecules that could block the binding of hVEGF₁₆₅ to the hVEGF-R2 (KDR/Flk-1) receptor, a competition ELISA was performed. […] Plates were then washed four times with wash buffer (TBS, 0.05% Tween-20) and blocked with Superblock blocking buffer (Thermo Scientific, cat#37535). […] The pre-incubated sample/hVEGF₁₆₅ complex was added to the coated plate at 50 μL in duplicate and incubated for 30 minutes at 25° C. with shaking. Following incubation, plates were washed four times with wash buffer. Streptavidin-polyHRP-40 (Fitzgerald cal#65r-s104phrp) was diluted in assay diluent (10% Superblock containing 0.05% surfactamps) and added to plates (50 μL) for 45 minutes at 25° C. with shaking. Plates were washed four times with wash buffer and developed with the addition of Enhanced K-blue TMB substrate (Neogen cat#308177). The reaction was stopped with 2N sulfuric acid (VWR, cat# BDH3500-1) and the absorbance was read at 450 nm-570 nm. A decrease in observed optical density indicates the test molecule is blocking the hVEGF₁₆₅ binding to the hVEGF-R2-Fc. Data was analyzed using Softmax Pro 4.8 software and IC₅₀ values calculated using a sigmoidal dose response (variable slope) fit in GraphPad Prism 5.
Anti-VEGF-A antibodies derived from rat hybridomas were characterized for binding, function and cross-reactivity in a panel of assays. Supernatants were tested for the ability to bind hVEGF₁₆₅ (Example 1.3) and block binding of hVEGF₁₆₅ to hVEGFR2 in a competition ELISA format (Example 1.4).

IC50 [nM] | Binder
0.155 | B1
0.207 | B2
0.127 | B3
0.13 | B4
0.13 | B5
0.326 | B6
0.124 | B7

These binders were tested against T2, Human VEGF-A 165 (human, UniProt P15692 207-395) (assay: cell-based or functional assay).
T2 sequence (P15692 other isoform, or with tags, fused parts or gaps limits assumed): as above

hVEGF165 IC50 (nM), HMVEC-d proliferation [nM] | Binder
0.138 | B8
0.212 | B9
0.161 | B10
0.184 | B11

Each binder was assayed against recombinant human VEGF165 (human, UniProt P15692 207-395) (assay: cell-based or functional assay).
Chain of recombinant human VEGF165 (P15692 other isoform, or with tags, fused parts or gaps limits assumed): as above

HMVEC-d hVEGF165 Potency IC50 [nM] | Binder
2.64 | B12
0.104 | B13
0.115 | B14

Each binder was assayed against recombinant human PDGF-BB (human, UniProt P01127 82-190) (assay: cell-based or functional assay).

NIH-3T3 hPDGF-BB Potency IC50 [nM] | Binder
0.076 | B12
0.075 | B13
0.096 | B14

The binders below were run against T2, Human VEGF-A 165 (assay: SPR (Biacore), antibody captured via anti-human Fc, antigen in solution).
Summary of the method: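 Antibodies or DVD-Ig molecules (1 μg/ml) were captured on an anti-human Fc CM5 surface, with antigen injected in solution and responses referenced to the capture-only surface. Rate constants came from a global 1:1 Langmuir fit, and KD = koff/kon.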

Kd [nM] | kon [M⁻¹ s⁻¹] | Binder
0.0077 | 1.1e+07 | B8
0.0097 | 9.8e+06 | B9
0.0092 | 1.1e+07 | B10
0.01 | 1e+07 | B11
